Results on 39 molecules are retold here after patent US20230416329A1 (INSTITUTE OF MATERIA MEDICA CHINESE ACADEMY OF MEDICAL …, published 2023).

One assay concerns the target bovine trypsin (bovine, UniProt P00760 24-246). Nature of the assay: trypsin inhibition, BApNA substrate. Here is the method:
The substrates N-succinyl-Ala-Ala-Pro-Phe-p-nitroaniline (AAPFpNA), Nα—Benzoyl-L-arginine-4-nitroaniline hydrochloride (BApNA) and N-succinyl-[…] (AAApNA) are used in competitive binding reaction to determine the inhibitory activities against α-chymotrypsin, bovine trypsin, and porcine pancreatic elastase, respectively. Experiments for α-chymotrypsin and bovine trypsin inhibition were measured in 20 mM CaCl₂, 50 mM Tris-HCl buffer (pH 7.8), and that for porcine elastase inhibition was measured in 50 mM Tris-HCl buffer (pH 8.0). The concentration of the peptide was measured using optical density (OD) at 280 nm. The Michaelis constant (Kₘ) of the enzyme hydrolysis substrate is calculated from the initial rate of substrate hydrolysis at 405 nm. The absorbance value of the substrate was measured at 405 nm after complete hydrolysis. All data were processed using nonlinear regression.
(1) Added a total 190 μL of reaction buffer (20 mM CaCl₂ and 50 mM Tris-HCl, pH 7.8) along with different concentrations of anti-trypsin peptides (BTs) into the pre-cooled 96-well plate, followed by preheating at 37° C., and spined down at 500 rpm for 5 min. Next added 10 μL of 1 μM trypsin, incubated at 37° C., and then spined down at 500 rpm for 10 min. Finally, added 5 μL of 50 mM BApNA, and mixed by centrifugation at 500 rpm for 1 min. […] The experiment was performed in triplicate. The blank control only contained the reaction buffer and the substrate as the minimum absorption value (Min OD_{405 nm}). The negative control only contained the reaction buffer, the enzyme and the substrate as the maximum absorption value (Max OD_{405 nm}). […] (2) In the reaction system of 205 μL, the final concentrations of trypsin and BApNA were 50 nM and 1.22 mM, respectively. [0456] (3) Data statistics

Assay [1] has as its target T1, porcine pancreatic elastase (porcine, UniProt P00772 27-266).
T1 construct: substrate AAApNA
Nature of the assay: elastase inhibition, Ki=IC50/(1+S/Km).

In assay [2] the target is T1, porcine pancreatic elastase. Kind of assay: elastase inhibition, AAApNA substrate, OD405.

Bridge positions count the residues as written; N and C are the ends. Square brackets hold non-standard residues; d marks the D form. Ends that are not written are not given here. Hyp = O=C(O)[C@@H]1C[C@@H](O)CN1; hCys = N[C@@H](CCS)C(=O)O; Nle = CCCC[C@H](N)C(=O)O

T1 sequence (P00772 27-266 limits assumed): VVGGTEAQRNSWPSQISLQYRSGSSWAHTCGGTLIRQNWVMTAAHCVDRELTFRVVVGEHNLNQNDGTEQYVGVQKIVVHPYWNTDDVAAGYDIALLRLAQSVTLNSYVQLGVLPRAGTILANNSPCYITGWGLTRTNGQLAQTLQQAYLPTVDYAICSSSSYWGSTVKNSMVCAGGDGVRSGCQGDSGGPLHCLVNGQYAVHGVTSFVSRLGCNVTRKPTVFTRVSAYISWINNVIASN
Chain of bovine trypsin (P00760 24-246): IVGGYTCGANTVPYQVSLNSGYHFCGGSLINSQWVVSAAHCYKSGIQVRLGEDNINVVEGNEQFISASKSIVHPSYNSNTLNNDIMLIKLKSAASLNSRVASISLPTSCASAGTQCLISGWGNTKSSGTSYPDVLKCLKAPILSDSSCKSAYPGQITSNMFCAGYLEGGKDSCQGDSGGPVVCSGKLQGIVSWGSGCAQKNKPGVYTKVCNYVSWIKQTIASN

B1: BT63 (peptide)
peptide: RCTKSIPPQCH
modifications: disulfide 2-10 (inferred)
On to B1, for which, in the assay with bovine trypsin, the IC50 (usually the point on the concentration scale where inhibition reaches its midpoint) was determined as 90 nM and the Ki (usually a dissociation constant, usually derived from enzyme kinetics or from competition with a known ligand) turned out to be 20 nM.

B2: EC47 (peptide)
peptide: ICTASI[Hyp]PICQ
modifications: disulfide 2-10 (inferred)
notes: disulfide bond between the two Cys
In turn, B2 came in with a Ki in assay [1] of 110 nM. This molecule had an IC50 in assay [2] of 400 nM.

B3: BT65 (peptide)
peptide: RCTKSLPPQCS
modifications: disulfide 2-10 (inferred)
In the assay with bovine trypsin, B3 had an IC50 of 620 nM and a Ki of 130 nM.

B4: EC26 (peptide)
peptide: MCTASMPPQCH
modifications: disulfide 2-10 (inferred)
notes: as for B2
In turn, B4 showed a Ki in assay [1] of 6840 nM. For the same molecule, the IC50 in assay [2] worked out at 23900 nM.

B5: EC7 (peptide)
peptide: CGLATLSIPPICQ
modifications: disulfide 1-12 (inferred)
notes: as for B2
In turn, B5 registered a Ki in assay [1] of 9620 nM. For the same molecule, in assay [2], the IC50 was 33700 nM.

B6: EC45 (peptide)
peptide: CAIATASIPPICQ
modifications: disulfide 1-12 (inferred)
notes: as for B2
The molecule B6 had a Ki in assay [1] of 13400 nM. For the same molecule, in assay [2], it took 47000 nM to reach half-maximal inhibition (IC50).

B7: EC33 (peptide)
peptide: CGILTASIPPICQ
modifications: disulfide 1-12 (inferred)
notes: as for B2
As for B7, affinity in assay [1] was put at a Ki of 7580 nM. In addition, in assay [2], it took 26500 nM to reach half-maximal inhibition (IC50).

B8: EC27 (peptide)
peptide: ICTASYPPQCR
modifications: disulfide 2-10 (inferred)
notes: as for B2
Turning to B8, the Ki in assay [1] came to 2440 nM. In assay [2], this molecule returned an IC50 of 8530 nM.

B9: BT13 (peptide)
peptide: CGRATKSIPPIAC
modifications: disulfide 1-13 (inferred)
In the assay with bovine trypsin, B9 registered an IC50 of 31500 nM and a Ki of 6700 nM.

B10: BT11 (peptide)
peptide: CGRATKSIPPIAFC
modifications: disulfide 1-14 (inferred)
Consider B10, for which, in the assay with bovine trypsin, the midpoint of inhibition, the IC50, lay at 2200 nM and affinity was put at a Ki of 470 nM.

B11: BT14 (peptide)
peptide: CGRATKSLPPACF
modifications: disulfide 1-12 (inferred)
For B11, in the assay with bovine trypsin, the IC50 worked out at 1650 nM and affinity was put at a Ki of 350 nM.

B12: BT12 (peptide)
peptide: CGRATKSIPPQCY
modifications: disulfide 1-12 (inferred)
Take B12: in the assay with bovine trypsin, the IC50 worked out at 8460 nM and affinity was put at a Ki of 1800 nM.

B13: BT23 (peptide)
peptide: GTCTRSIPPICNPN
modifications: disulfide 3-11 (inferred)
On to B13, for which, in the assay with bovine trypsin, inhibition was half-maximal at 1820 nM (IC50) and affinity was put at a Ki of 390 nM.

B14: BT36 (peptide)
peptide: CWTKSIPPKPC
modifications: disulfide 1-11 (inferred)
Consider B14, for which, in the assay with bovine trypsin, the concentration for half-maximal inhibition (IC50) turned out to be 4650 nM and the Ki amounted to 990 nM.

B15: EC49 (peptide)
peptide: QGADTPPVGGLCTASIPPQCY
modifications: disulfide 12-20 (inferred)
notes: as for B2
In the case of B15, in assay [1], the Ki was 280 nM. The same molecule returned an IC50 in assay [2] of 990 nM.

B16: BT32 (peptide)
peptide: CGRATKSIPPIAFGC
modifications: disulfide 1-15 (inferred)
As to B16, in the assay with bovine trypsin, the IC50 was determined as 1540 nM and affinity was put at a Ki of 330 nM.

B17: BT2 (peptide)
peptide: CGAKGTKSIPPICFPD
modifications: disulfide 1-13 (inferred)
In the assay with bovine trypsin, B17 came in with an IC50 of 3030 nM and a Ki of 650 nM.

B18: BT3 (peptide)
peptide: CGAKATKSIPPICFPD
modifications: disulfide 1-13 (inferred)
In the assay with bovine trypsin, B18 came in with an IC50 of 680 nM and a Ki of 140 nM.

B19: EC32 (peptide)
peptide: CGI[Nle]TASIPPICQ
modifications: disulfide 1-12 (inferred)
notes: as for B2
As to B19, in assay [1], affinity was put at a Ki of 6110 nM. The molecule further showed an IC50 in assay [2] of 21400 nM.

B20: BT33 (peptide)
peptide: [hCys]GRATKSIPPIAFG[hCys]
modifications: disulfide 1-15
Consider B20, for which, in the assay with bovine trypsin, the IC50 was determined as 5570 nM and the affinity, expressed as Ki, was 1190 nM.

B21: BT28 (peptide)
peptide: CGRATKS[Nle]PPICF
modifications: disulfide 1-12 (inferred)
In the assay with bovine trypsin, B21 yielded an IC50 of 290 nM and a Ki of 60 nM.

B22: EC48 (peptide)
peptide: ICTASIP[Hyp]ICQ
modifications: disulfide 2-10 (inferred)
notes: as for B2
Turning to B22, the affinity in assay [1] corresponds to a Ki of 160 nM. The molecule further showed an IC50 in assay [2] of 550 nM.

B23: BT45 (peptide)
peptide: RCTKSIPPICF
modifications: disulfide 2-10 (inferred)
notes: also called truncated monocyclic SFTI-1 mutant
B23: in the assay with bovine trypsin, the IC50 turned out to be 30 nM and the Ki was 6.4 nM.

B24: BT62 (peptide)
peptide: RCTKSIPPHCF
modifications: disulfide 2-10 (inferred)
As for B24, in the assay with bovine trypsin, half-maximal inhibition (IC50) was put at 70 nM and the Ki came to 10 nM.

B25: BT29 (peptide)
peptide: [hCys]GRATKSIPPIAF[hCys]
modifications: disulfide 1-14
On to B25, for which, in the assay with bovine trypsin, half-maximal inhibition (IC50) required 10600 nM and the Ki stood at 2260 nM.

B26: BT68 (peptide)
peptide: ACTKSNPPQCR
modifications: disulfide 2-10 (inferred)
In the assay with bovine trypsin, B26 returned an IC50 of 2430 nM and a Ki of 520 nM.

B27: EC12 (peptide)
peptide: LCTASIPPICQ
modifications: disulfide 2-10 (inferred)
notes: as for B2
As for B27, the Ki in assay [1] was 110 nM. Besides, the IC50 in assay [2] was 400 nM.

B28: EC21 (peptide)
peptide: LCTASIPPICR
modifications: disulfide 2-10 (inferred)
notes: as for B2
B28 had a Ki in assay [1] of 4370 nM. This molecule also returned an IC50 in assay [2] of 15300 nM.

B29: EC14 (peptide)
peptide: YCTASIPPQCY
modifications: disulfide 2-10 (inferred)
notes: as for B2
In turn, B29 gave a Ki in assay [1] of 2040 nM. For the same molecule, in assay [2], the IC50 is 7140 nM.

B30: EC23 (peptide)
peptide: ICTASIPPICQ
modifications: disulfide 2-10 (inferred)
notes: as for B2
As to B30, the affinity in assay [1], expressed as Ki, was 70 nM. In assay [2], this molecule registered an IC50 of 250 nM.

B31: EC18 (peptide)
peptide: LCTASIPPQCQ
modifications: disulfide 2-10 (inferred)
notes: as for B2
Turning to B31, the Ki in assay [1] is 270 nM. Besides, in assay [2], the IC50 stood at 960 nM.

B32: EC1 (peptide)
peptide: LCTASIPPQCY
modifications: disulfide 2-10 (inferred)
notes: as for B2
Turning to B32, the affinity in assay [1], expressed as Ki, was 330 nM. Further, inhibition in assay [2] was half-maximal at 1170 nM (IC50).

B33: EC24 (peptide)
peptide: FCTASIPPICQ
modifications: disulfide 2-10 (inferred)
notes: as for B2
The molecule B33 came in with a Ki in assay [1] of 640 nM. The IC50 in assay [2] is 2230 nM.

B34: EC29 (peptide)
peptide: YCTASIPPICQ
modifications: disulfide 2-10 (inferred)
notes: as for B2
B34 gave a Ki in assay [1] of 260 nM. The same molecule came in with an IC50 in assay [2] of 920 nM.

B35: EC22 (peptide)
peptide: VCTASIPPICQ
modifications: disulfide 2-10 (inferred)
notes: as for B2
B35: in assay [1], the affinity corresponds to a Ki of 110 nM. In addition, the IC50 in assay [2] worked out at 400 nM.

B36: EC25 (peptide)
peptide: LCTASNPPICQ
modifications: disulfide 2-10 (inferred)
notes: as for B2
In the case of B36, the Ki in assay [1] was 300 nM. 1050 nM corresponded to half-maximal inhibition in assay [2] (IC50).

B37: EC2 (peptide)
peptide: LCTLSIPPQCY
modifications: disulfide 2-10 (inferred)
notes: as for B2
B37: the affinity in assay [1] corresponds to a Ki of 910 nM. In addition, in assay [2], the IC50 came to 3190 nM.

B38: EC19 (peptide)
peptide: ICTASIPPQCQ
modifications: disulfide 2-10 (inferred)
notes: as for B2
Regarding B38, the Ki in assay [1] is 330 nM. This molecule also returned an IC50 in assay [2] of 1140 nM.

B39: BT64 (peptide)
peptide: RCTKSNPPQCQ
modifications: disulfide 2-10 (inferred)
On to B39, for which, in the assay with bovine trypsin, the IC50 was determined as 3430 nM and the Ki was 730 nM.
